Results reported in patent US20260242478A1 (published 2026).
Where no end group is shown, it is not given here.

How the values were obtained:
[1] = target: T1, PSMA Fab (006 PSMA Fab); assay: clonal phage ELISA; biotinylated PSMA Fab on neutravidin plate, blocking buffer alone; anti-M13 HRP detection;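 also: crude clonal phage supernatants added without washing to wells pretreated with blocking buffer with or without PSMA antigen, short incubation, then washed before detecting bound phage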
T1 construct: also called Anti-PSMA Fab; anti-PSMA Fab
Description: (§1) Clonal phage were harvested as crude supernatants and screened via standard ELISAs. […] Prior to the addition of clonal phage. wells were incubated with blocking buffer and PSMA antigen or blocking buffer alone. Without washing or aspirating, clonal phage supernatants were then added to the wells and incubated for a short time. Wells were then washed followed by detection of bound phage using a horse radish conjugated anti-M13 antibody.

[2] = target: T1, PSMA Fab (006 PSMA Fab); assay: clonal phage ELISA; biotinylated PSMA Fab on neutravidin plate pre-incubated with PSMA antigen as competitor; anti-M13 HRP detection;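 also: crude clonal phage supernatants briefly incubated on wells preloaded with PSMA antigen in blocking buffer, or buffer only as control, bound phage detected with HRP-conjugated anti-M13 antibody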
Description: as §1

[3] = target: T2, 006 PSMA Fab (biotinylated (site not stated)); assay: clonal phage ELISA, biotinylated PSMA Fab on neutravidin plate, anti-M13 HRP detection, no PSMA antigen
T2 construct: Biotinylated PSMA Fab captured on neutravidin coated plates in the clonal phage ELISA; also called Anti-PSMA Fab; anti-PSMA Fab

[4] = target: T2, 006 PSMA Fab; assay: clonal phage ELISA, biotinylated PSMA Fab on neutravidin plate, anti-M13 HRP detection; competitor PSMA antigen
Description: as §1

[5] = target: T3, 006 PSMA Fab; assay: clonal phage ELISA on biotinylated PSMA Fab captured on neutravidin plates, anti-M13 HRP detection;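 also: crude clonal phage supernatants tested, before phage were added, wells were pretreated with PSMA antigen in blocking buffer or with blocking buffer only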
T3 construct: In the panning ELISA the PSMA Fab was biotinylated and captured on neutravidin coated plates; also called Anti-PSMA Fab; anti-PSMA Fab
Description: as §1

[6] = target: T3, 006 PSMA Fab; assay: clonal phage ELISA on captured PSMA Fab pre-incubated with PSMA antigen as competitor, anti-M13 HRP detection;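 also: crude clonal phage supernatants tested by ELISA, wells first treated with blocking buffer plus PSMA antigen, bound phage read out via HRP-linked anti-M13 antibody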
Description: as §1

Binder | Phage binding ELISA signal, Anti-PSMA Fab [1] | Phage binding ELISA signal, Anti-PSMA Fab in presence of PSMA [2] | phage binding ELISA signal [3] | phage binding ELISA signal with PSMA antigen present [4] | other results
IVPKCQPSWMCFGF (cysteine pairing not given here; also: fused to phage pIII, orientation and linker not given here) [Phage-3137] | 2.06 | 0.0991 |  |  | 
FHIMCQPEWMCLGF [Phage-3116] |  |  | 2.08 | 0.129 | 
YDFRCIPSWMCMGI [Phage-3095] |  |  |  |  | Phage binding ELISA signal, Anti-PSMA Fab [5]: 2.1; Phage binding ELISA signal, Anti-PSMA Fab in the presence of PSMA antigen [6]: 0.0693
LDKRCVPVWMCEGF (cysteine pairing not given here; also: fused to phage pIII, orientation and linker not given here) [Phage-3127] |  |  | 2.06 | 0.0828 | 
QGRVCEPSWMCTGF [Phage-3096] |  |  |  |  | Phage binding ELISA signal, Anti-PSMA Fab [5]: 2.09; Phage binding ELISA signal, Anti-PSMA Fab in the presence of PSMA antigen [6]: 0.0561
MERMCRPAWMCTAF [Phage-3097] |  |  |  |  | Phage binding ELISA signal, Anti-PSMA Fab [5]: 2.09; Phage binding ELISA signal, Anti-PSMA Fab in the presence of PSMA antigen [6]: 0.107
HQLMCRPAWMCEGF (cysteine pairing not given here; also: fused to phage pIII, orientation and linker not given here) [Phage-3135] | 2.06 | 0.118 |  |  | 
MGPVCKPAWMCLEF [Phage-3099] |  |  |  |  | Phage binding ELISA signal, Anti-PSMA Fab [5]: 2.09; Phage binding ELISA signal, Anti-PSMA Fab in the presence of PSMA antigen [6]: 0.109
LESMCIPPWMCSGL [Phage-3118] |  |  | 2.07 | 0.109 | 
NEPWCVPAWMCTGF [Phage-3120] |  |  | 2.07 | 0.0834 | 
DTRICKPEWMCMGM (cysteine pairing not given here; also: fused to phage pIII, orientation and linker not given here) [Phage-3138] | 2.06 | 0.107 |  |  | 
VEPYCKPAWMCTGF [Phage-3093] |  |  |  |  | Phage binding ELISA signal, Anti-PSMA Fab [5]: 2.1; Phage binding ELISA signal, Anti-PSMA Fab in the presence of PSMA antigen [6]: 0.11
SVGYCVPSWMCSGF (cysteine pairing not given here; also: fused to phage pIII, orientation and linker not given here) [Phage-3130] | 2.06 | 0.075 |  |  | 
ILPQCVPAWMCSGF [Phage-3101] |  |  |  |  | Phage binding ELISA signal, Anti-PSMA Fab [5]: 2.09; Phage binding ELISA signal, Anti-PSMA Fab in the presence of PSMA antigen [6]: 0.0784
DYHYCEPAWMCFGF [Phage-3119] |  |  | 2.07 | 0.0726 | 
EFPLCVPAWMCSGF [Phage-3115] |  |  | 2.08 | 0.0859 | 
TAPVCVPWWMCEGF (cysteine pairing not given here; also: fused to phage pIII, orientation and linker not given here) [Phage-3139] | 2.05 | 0.0757 |  |  | 

Binder | Phage binding ELISA signal, Anti-PSMA Fab [1] | Phage binding ELISA signal, Anti-PSMA Fab in presence of PSMA [2] | phage binding ELISA signal [3] | phage binding ELISA signal with PSMA antigen present [4] | other results
GAMVCKPAWMCQGF [Phage-3094] |  |  |  |  | Phage binding ELISA signal, Anti-PSMA Fab [5]: 2.1; Phage binding ELISA signal, Anti-PSMA Fab in the presence of PSMA antigen [6]: 0.0731
GMIQCRPAWMCAGL (cysteine pairing not given here; also: fused to phage pIII, orientation and linker not given here) [Phage-3122] |  |  | 2.07 | 0.0928 | 
SGALCVPLWMCTGF [Phage-3117] |  |  | 2.07 | 0.0979 | 
SMHWCEPMWMCAGF (cysteine pairing not given here; also: fused to phage pIII, orientation and linker not given here) [Phage-3124] |  |  | 2.07 | 0.0809 | 
GHQMCVPQWMCDAF (cysteine pairing not given here; also: fused to phage pIII, orientation and linker not given here) [Phage-3129] | 2.06 | 0.0607 |  |  | 
VVQICKPSWMCEGF (cysteine pairing not given here; also: fused to phage pIII, orientation and linker not given here) [Phage-3136] | 2.06 | 0.102 |  |  | 
DAVRCVPSWMCEGF (cysteine pairing not given here; also: fused to phage pIII, orientation and linker not given here) [Phage-3131] | 2.06 | 0.1 |  |  | 
VNVKCVPSWMCSGF (cysteine pairing not given here; also: fused to phage pIII, orientation and linker not given here) [Phage-3125] |  |  | 2.07 | 0.0739 | 
YERSCVPSWMCEGF (cysteine pairing not given here; also: fused to phage pIII, orientation and linker not given here) [Phage-3133] | 2.06 | 0.066 |  |  | 
GYPLCIPEWMCAGF (cysteine pairing not given here; also: fused to phage pIII, orientation and linker not given here) [Phage-3123] |  |  | 2.07 | 0.0968 | 
LELACKPEWMCVGF (cysteine pairing not given here; also: fused to phage pIII, orientation and linker not given here) [Phage-3128] |  |  | 2.06 | 0.0801 | 
THIICKPAWMCDAW (cysteine pairing not given here; also: fused to phage pIII, orientation and linker not given here) [Phage-3132] | 2.06 | 0.0691 |  |  | 
APVFCKPAWMCPWL [Phage-3121] |  |  | 2.07 | 0.0695 | 
PMPVCVPMWMCYGF [Phage-3100] |  |  |  |  | Phage binding ELISA signal, Anti-PSMA Fab [5]: 2.09; Phage binding ELISA signal, Anti-PSMA Fab in the presence of PSMA antigen [6]: 0.0842
AERLCVPAWMCLNL (cysteine pairing not given here; also: fused to phage pIII, orientation and linker not given here) [Phage-3134] | 2.06 | 0.0543 |  |  | 
EHILCRPVWMCEGF [Phage-3098] |  |  |  |  | Phage binding ELISA signal, Anti-PSMA Fab [5]: 2.09; Phage binding ELISA signal, Anti-PSMA Fab in the presence of PSMA antigen [6]: 0.101
FEILCRPLWMCSGF (cysteine pairing not given here; also: fused to phage pIII, orientation and linker not given here) [Phage-3126] |  |  | 2.06 | 0.111 | 
